# Source: the nanobody polyreactivity screen of Harvey et al. (2022)
# Experiment: yeast display, Sf9 membrane polyspecificity reagent, FACS + sequencing; frameworks hold sequencing errors
# Procedure, shortened: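 Galactose induction of a Saccharomyces cerevisiae BJ5465 synthetic nanobody display library ran 36–48 hours. The cells were then stained for 1 hour at 4 °C with 10% biotinylated, detergent-solubilized Sf9 membrane reagent, pulled down on streptavidin microbeads and FACS-sorted into low and high (top ~1%) gates on expression and reagent-binding fluorescence. Labels for polyreactivity follow the gate of origin.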
row,Sequence,polyreactivity (PSR sort gate)
1,QVQLVESGGGLVQAGGSLRLSCAASGSTFYTYAMGWYRQAPGKERELVAAITSSGTTNYADSVKGRFTISRDNAKNTVYLQMNSLKPEDTAVYYCAKRSYGGTLHYAFDSWGQGTQVTVSS,low polyreactivity
2,QVQLVESGGGLVQAGGSLRLSCAASGSTFYTYDMGWYRQAPGKERELVASITSGGSTNYADSVKGRFTISRDNAKNTVYFQMYCMKPVDTAVYYCAVGTYTIYSGTLYDYKYYWGQGTVVTVSS,low polyreactivity
3,QVQLVESGGGLVQAGGSLRLSCAASGSTFYVNAMGWYRQAPGKERELVAYADSVKGRFTISRDNAKNTVYLQMNSLKPEDTAVYYCNADIEYRPGHGRLGDYDYWGQGTQVTVSS,low polyreactivity
4,QVQLVESGGGLVQAGGSLRLSCAASGSTFYVYAMGSYRQAPGKERELVAAITRGGSTYYADSVKARFTISRDNAKNTVYLQMNSLKPEDTAVYYCAKYLTGAADLVPEYDYWGQGTQVTVSS,low polyreactivity
5,QVQLVESGGGLVQAGGSLRLSCAASGSTFYVYAMGWYRQAPGKEREFVAAISFSSGSTYYADSVKGRFTISRDYAKNTVYLQMNSLKPEDTAVYYCAARYRYPRSIGYGYGGAFDYWGQGTQVTVSS,high polyreactivity
6,QVQLVESGGGLVQAGGSLRLSCAASGSTFYVYAMGWYRQAPGKERELVAAIDSGDSTNYADSVKGRFTISRDNAKNTVYLQMNSLNPEDTAVYYCAVGYWDSRYRYDWPNSDYWGQGTQVTVSS,low polyreactivity
7,QVQLVESGGGLVQAGGSLRLSCAASGSTFYVYAMGWYRQAPGKERELVAAITVRGGSTYYADSVKGRFTISRDNAKYTVYLQMNSLKPEDTAVYYCAVDVSKPYYEMDYWGQGTQVTVSS,high polyreactivity
8,QVQLVESGGGLVQAGGSLRLSCAASGSTFYVYDMGWYRQAPGKERELVAAITRRGGSTYYADSVKGRFTISRDNAKNTVYLQMNSLKPVDTAVYYCAARTAYYPTHRYYWGQGTQVTVSS,high polyreactivity
9,QVQLVESGGGLVQAGGSLRLSCAASGSTFYWYAKGWYRQAPGKERELVAAITSTGGSTYADSVKGRFTISRDNAKNTVYLQMNSLKPEDTAVYYCNVDTSSPSRRDYDYWGQGTQVTVSS,low polyreactivity
10,QVQLVESGGGLVQAGGSLRLSCAASGSTFYWYSMGWYRQAPGKERELVAAITSTGGSTYADSVKGRFTISRDNAKNTVYLQMNSLKPEDTAVYYCNVDTSSPSRRDYDYWGQGTQVTVSS,low polyreactivity
11,QVQLVESGGGLVQAGGSLRLSCAASGSTFYWYTMGWYRQAPGKEREMVATITSVGRTNYADSVKGRFTISRDNAKNTVYLQMNSLKPEDTAVYYCAASKARWPRGGSKYYYWGQGTQVSVSS,high polyreactivity
12,QVQLVESGGGLVQAGGSLRLSCAASGSTFYYAIGRYRQAPGKERELVASITFSTGSTYYADSVKGRFTISRDNAKNTVYLQLNSLKPEDTAVYYCATGVDTYSLTVEHDSWGQGTQVTVSS,low polyreactivity
13,QVQLVESGGGLVQAGGSLRLSCAASGSTFYYAMGWYRQAPGKERELVASITFSTGSTYYADSVKGRFTISRDNAKNTVYLQMTSLKPEDTAVYYCATGVDTYSLTVEHDSWGQGTQVTVSS,low polyreactivity
14,QVQLVESGGGLVQAGGSLRLSCAASGSTFYYKSMGWYRQAPGKERELVAAITFTGGSTYADSVKGRFTISRDNAKNTVYLQMNSLIPEDTAVYYCAATIQGHDYLGTGYDYWGQGTQVTVSS,low polyreactivity
15,QVQLVESGGGLVQAGGSLRLSCAASGSTFYYNAMGWYRQAPGKETELVADISWRGGITYYADSVKGRFTISRDNAKNTVYLQMNSLKPEDTAVYYCNADAESFDDGYWGQGTQVTVSS,low polyreactivity
16,QVQLVESGGGLVQAGGSLRLSCAASGSTFYYNTMGWYRQAPGKERELVAAITSGDTTYYADSVKGRFTISRDNAKNTVYLQMNSLKPEDTAVYYCAAAWPYARYDYWGQGTQVTVSS,low polyreactivity
17,QVQLVESGGGLVQAGGSLRLSCAASGSTFYYYAMGWSRQAPGKERELVAGITWSGGRTYYADSVKGRFTISRDNAKNTVYLQMNSLKTEDTAVYYCAASLYTWTYQPVYYRDGYWGQGTQVTVSS,low polyreactivity
18,QVQLVESGGGLVQAGGSLRLSCAASGSTFYYYAMGWSRQAPGQERELVAAISWRGSSTYYADAVQGRFTISRDNAKNTVYLQLNSLKPEDTAVSYCAAGYPGRVSGYRYGTRATYYYWGQGTQVTVSS,high polyreactivity
19,QVQLVESGGGLVQAGGSLRLSCAASGSTFYYYAMGWYRPAPGKERELVAAIRSDVSTNYADSVKGRFTISRDNAKNTVYLQMNSLKPEDTAVYYCAARFPWNRVTYDYWGQGTQVTVSS,low polyreactivity
20,QVQLVESGGGLVQAGGSLRLSCAASGSTFYYYAMGWYRQAPGKEMELVAAISGSGGNTYYADSVKGRFTISRDNAKNTVYLQMNSLKPEDTAVYYCAADYGYPLGVSWYGYGYWGQGTQVTVSS,low polyreactivity
21,QVQLVESGGGLVQAGGSLRLSCAASGSTFYYYAMGWYRQAPGKERELVAAIDRDDRTNYADSVKGRFTISRDNAKNTVYLQMNSLKPEDTAVYYCAAVEIYEYDYWGQGTQVTVSS,low polyreactivity

row,Sequence,polyreactivity (PSR sort gate)
1,QVQLVESGGGLVQAGGSLRLSCAASGSTFYYYAMGWYRQAPGKERELVAAINSSGGNTYYADSVKGRFTISRDNAKNTVYLQMNSLKPEDTAVYYCATGQIAYSSYGPFDYWGQGTQVTVSS,low polyreactivity
2,QVQLVESGGGLVQAGGSLRLSCAASGSTFYYYAMGWYRQAPGKERELVAAINSSGGNTYYADSVKGRFTISRDNAKNTVYLQMNSLNPEDTAVYYCATEYYWLQDYDYWGHGTQVTVSS,low polyreactivity
3,QVQLVESGGGLVQAGGSLRLSCAASGSTFYYYAMGWYRQAPGKERELVAAISWSGGSTYYADSVKGRFTISRDNAKNTVYLQMNSLKPEDTAVYYCNKYVRFRGGAYVTGYDYWGQGTQVTVSS,high polyreactivity
4,QVQLVESGGGLVQAGGSLRLSCAASGSTFYYYAMGWYRQAPGKERELVAAITKSGGSTYYADSVKGRFTISGDNAKNTVYLQMNTLKPEDTAVYYCAAYLRSGYKFDYWGQGTQVTVSS,low polyreactivity
5,QVQLVESGGGLVQAGGSLRLSCAASGSTFYYYAMGWYRQAPGKERELVAAITYSGGGTYYADSVKGRFTISRDNAKNTFYLQMNSLKPEDTAVYYCAKTIAVNTWYYYWGQGTQVTVSS,low polyreactivity
6,QVQLVESGGGLVQAGGSLRLSCAASGSTFYYYAMGWYRQAPGKERELVASISASGGNTYYADSVKGRFTISRDNAKNTVYLQMNSLKPEDTAVYYCAARARRSQSISLKYYYWGQGTQVTVSS,high polyreactivity
7,QVQLVESGGGLVQAGGSLRLSCAASGSTFYYYAMGWYRQAPGKERELVASISDDGSTNYADSVKGRFTISRDNAKNTVYLQMNSLKPEDTAVYYCAAVWWHQFGSAWYQMGYWGQGTQVTVSS,low polyreactivity
8,QVQLVESGGGLVQAGGSLRLSCAASGSTFYYYAMGWYRQAPGKERELVASITTGGGSTYYADSVKGRFTISRDNAKNTFYLEMNSLKPEDTAVYYCAAALSYYFWWYDYLGQGTQVTVSS,low polyreactivity
9,QVQLVESGGGLVQAGGSLRLSCAASGSTFYYYAMGWYRQAPGKERELVATITSTGRTNYADSVKGRFTISRDNAKNTVYLQMNSLKPEDTAVYYCAALRRIQRPEYGYWGQGTQVTVSS,low polyreactivity
10,QVQLVESGGGLVQAGGSLRLSCAASGSTFYYYARGWYRQAPGKERELVATITSGASTNYADSVKGRFTISRDNAKNTVYLQMNSLKPEDTAVYYCNAVSLTSYLPWSSYDYWGQGTQVTVSS,low polyreactivity
11,QVQLVESGGGLVQAGGSLRLSCAASGSTFYYYGMGWYRQAPGKERELVASISWGGGSTYYADSVKGRFTISRDNAKNTVYLQMNILKPEDTAVYYCATRGSYLGGLYDYWGQGTQVTVSS,high polyreactivity
12,QVQLVESGGGLVQAGGSLRLSCAASGSTFYYYGMGWYRQAPGKESALVAAISSSGGNTYYADSVKGRFTISRDNAKNTVYLQMNSLKPEDTAVYYCARGGHRGYWGQGTQVTVSS,low polyreactivity
13,QVQLVESGGGLVQAGGSLRLSCAASGSTFYYYTMGCYRQAPGKEREFVAAITRSGGSTYYADSVKGRFTISRDNAKNTVYLQMNSLKPEDTAVYYCAATRQRVKSEYWGQGTQVTVSS,low polyreactivity
14,QVQLVESGGGLVQAGGSLRLSCAASGSTFYYYTMGWYRQAPGKEREFVAAITRSGGSTYYADSVKGRFTISRDNSKNTVYFQMNSLKPEDTAVYYCNVDGTSSSPFVQKHKEMDYWGQGTQVTVSS,low polyreactivity
15,QVQLVESGGGLVQAGGSLRLSCAASGSTFYYYVMGWYRQAPGKERELVATITSGGSTNYADSVKGRFTISRDNAKNTVYLQMNSLKPEDTAVYYCAADWYLIIARSRPTLDYDYWGQGTQVTVSS,low polyreactivity
16,QVQLVESGGGLVQAGGSLRLSCAASGSTIAGNAMGWYRQAPGKERELVAVITRGGSTNYADSVKGRFTISRDNAKNTVSLQMNSLKPEDTAVYYCARYRFLLDYWRGGYYWGQGTQVTVSS,high polyreactivity
17,QVQLVESGGGLVQAGGSLRLSCAASGSTIDGYAKGWYTQAPGKEREFVAAISFSSASTYYADSVKGRFTISSDNAKNTFYLQMNSLIPEDTAVYDCAASYKGLWHGDYDYWGQGTQVTVSS,low polyreactivity
18,QVQLVESGGGLVQAGGSLRLSCAASGSTIEPYAMGWYRQAPGKEREFVAVITLSGGTTYYADSVKGRFTISRDNAKNTVYLQMHSLKPEDTAVYYCNAQYRKARVDEYYYWGQGTQVTVSS,high polyreactivity
19,QVQLVESGGGLVQAGGSLRLSCAASGSTIFENVMGWYRQAPGKEREFVAAINTSGGSTYYADSVKGRFTISRDNAKNTVYLQMNSLKPEDTAVYYCARDSYWEMDYWGQGTQVSVSS,low polyreactivity
20,QVQLVESGGGLVQAGGSLRLSCAASGSTIGFYTMGWYRQAPGKERELVATISYSGGDTYYADSVKGRFTISRDNAKNTVYLQMNSLKPEDTAVYYCAADLGDYVTTYSWLDSWGQGTQVTVSS,low polyreactivity
